T1: human sodium-dependent phosphate transporter 2B (NaPi2b) (human, UniProt O95436 1-690)
T1 sequence: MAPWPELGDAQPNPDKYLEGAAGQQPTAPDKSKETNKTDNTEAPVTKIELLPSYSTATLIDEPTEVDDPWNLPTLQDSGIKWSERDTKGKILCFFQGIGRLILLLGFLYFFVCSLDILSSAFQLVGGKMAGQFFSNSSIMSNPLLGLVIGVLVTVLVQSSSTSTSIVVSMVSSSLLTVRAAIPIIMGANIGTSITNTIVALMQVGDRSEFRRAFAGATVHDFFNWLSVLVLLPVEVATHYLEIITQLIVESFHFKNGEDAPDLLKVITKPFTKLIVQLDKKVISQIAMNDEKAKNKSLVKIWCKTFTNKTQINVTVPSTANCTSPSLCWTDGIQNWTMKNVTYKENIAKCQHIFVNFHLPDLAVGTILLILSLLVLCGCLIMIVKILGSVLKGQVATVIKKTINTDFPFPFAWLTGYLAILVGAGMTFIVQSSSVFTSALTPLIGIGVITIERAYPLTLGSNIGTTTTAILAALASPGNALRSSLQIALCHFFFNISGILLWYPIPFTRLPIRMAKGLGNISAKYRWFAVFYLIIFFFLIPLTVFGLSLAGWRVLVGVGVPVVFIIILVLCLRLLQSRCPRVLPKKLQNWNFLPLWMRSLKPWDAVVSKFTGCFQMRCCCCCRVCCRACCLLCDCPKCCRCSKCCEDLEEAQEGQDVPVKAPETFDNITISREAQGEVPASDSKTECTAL

T2: human sodium-dependent phosphate transporter 2B (NaPi2b) (human, UniProt O95436 1-690)
T2 construct: UniProt ID is given as 095436 [sic]; also called hNaPi2b; Hu NaPi2b
T2 sequence: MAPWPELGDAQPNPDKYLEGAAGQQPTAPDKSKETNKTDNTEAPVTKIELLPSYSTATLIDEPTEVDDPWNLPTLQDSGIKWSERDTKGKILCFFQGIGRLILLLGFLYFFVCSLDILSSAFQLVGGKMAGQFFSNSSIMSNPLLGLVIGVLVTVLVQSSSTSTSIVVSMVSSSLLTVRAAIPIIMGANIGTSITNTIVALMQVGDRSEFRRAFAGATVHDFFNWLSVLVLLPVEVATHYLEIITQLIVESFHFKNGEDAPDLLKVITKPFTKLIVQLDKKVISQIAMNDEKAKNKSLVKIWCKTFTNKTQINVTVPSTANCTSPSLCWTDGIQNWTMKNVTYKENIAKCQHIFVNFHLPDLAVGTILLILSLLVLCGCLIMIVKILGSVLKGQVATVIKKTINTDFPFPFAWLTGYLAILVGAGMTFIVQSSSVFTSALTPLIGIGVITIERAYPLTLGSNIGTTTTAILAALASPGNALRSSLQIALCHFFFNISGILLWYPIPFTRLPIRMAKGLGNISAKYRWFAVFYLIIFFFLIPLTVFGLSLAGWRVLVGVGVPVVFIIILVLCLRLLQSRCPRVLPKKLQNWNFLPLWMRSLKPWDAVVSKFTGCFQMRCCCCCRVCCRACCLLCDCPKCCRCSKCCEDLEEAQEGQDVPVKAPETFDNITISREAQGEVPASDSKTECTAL

T3: human NaPi2b (sodium-dependent phosphate transporter 2B) (human, UniProt O95436 1-690)
T3 sequence: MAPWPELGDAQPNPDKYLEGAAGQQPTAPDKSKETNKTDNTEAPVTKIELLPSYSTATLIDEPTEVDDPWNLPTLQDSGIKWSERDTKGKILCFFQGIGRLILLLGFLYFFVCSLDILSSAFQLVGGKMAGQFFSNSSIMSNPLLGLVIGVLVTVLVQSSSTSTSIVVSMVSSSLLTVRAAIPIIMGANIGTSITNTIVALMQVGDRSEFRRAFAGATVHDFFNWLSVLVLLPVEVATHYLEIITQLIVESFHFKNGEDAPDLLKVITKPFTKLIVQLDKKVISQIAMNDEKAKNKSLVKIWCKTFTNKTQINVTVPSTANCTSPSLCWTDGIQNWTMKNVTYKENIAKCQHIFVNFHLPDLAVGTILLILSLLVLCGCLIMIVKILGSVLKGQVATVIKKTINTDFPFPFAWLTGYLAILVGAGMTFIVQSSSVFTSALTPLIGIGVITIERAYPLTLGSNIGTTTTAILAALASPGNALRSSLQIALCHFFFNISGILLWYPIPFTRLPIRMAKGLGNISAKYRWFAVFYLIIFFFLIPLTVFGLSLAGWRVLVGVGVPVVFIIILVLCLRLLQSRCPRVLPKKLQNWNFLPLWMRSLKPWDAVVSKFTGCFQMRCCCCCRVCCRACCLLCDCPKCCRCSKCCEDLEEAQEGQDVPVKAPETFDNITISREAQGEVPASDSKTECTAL


Tests used:
[1] = biological target: T1, human sodium-dependent phosphate …; assay: cell-based or functional assay
[2] = biological target: T2, human sodium-dependent phosphate …; assay: flow cytometry, IGROV-1 cells (endogenous NaPi2b); set-up: unit not given here
[3] = biological target: T2, human sodium-dependent phosphate …; assay: flow cytometry, IGROV-1 cells (endogenous NaPi2b); apparent Kd
Experimental: Briefly, cells were seeded at 50,000 cells/well in conical-bottom 96-well plates and treated with test antibody for 24 hours at 4° C. to prevent internalization. […] Following incubation and washing, fluorescence was detected by flow cytometry on a BD LSRFortessa™ Cell Analyzer (BD Biosciences, Franklin Lake, NJ) with 1,000 minimum events collected per well.

[4] = biological target: T3, human NaPi2b (sodium-dependent …); assay: cell-based or functional assay

Row | Binder | Bmax [2] | Kd [3] | further results
1 | v29456-MT-GGFG-AM-Compound 136 DAR 8 (antibody, human IgG1, kappa, drug-linker MT-GGFG-AM-Compound 136 on cysteine thiols after TCEP reduction, positions not given; DAR 8 for the whole antibody) heavy: not shown light: DVQMTQSPSSLSASVGDRVTITCRASQDVYSYLNWYQQKPGKAVKLLIYYTSRLQSGVPSRFSGSGSGTDYTLTISSLQPEDFATYYCQQYNIFPWTFGQGTKLEIKRTVAAPSVFIFPPSDEQLKSGTASVVCLLNNFYPREAKVQWKVDNALQSGNSQESVTEQDSKDSTYSLSSTLTLSKADYEKHKVYACEVTHQGLSSPVTKSFNRGEC | – | – | EC50, in vitro cytotoxicity, 2D monolayer, HCC-78 [1]: 0.43 nM; EC50, in vitro cytotoxicity, 2D monolayer, IGROV-1 [1]: 4.48 nM
2 | v18993 (lifastuzumab)-DL2 (antibody, human IgG1, kappa, as above; maleimide functionalized auristatin drug linker (DL2); sites and DAR not stated, also called lifastuzumab-DL2 ADC) heavy 1: GEVQLVESGGGLVQPGGSLRLSCAASGFSFSDFAMSWVRQAPGKGLEWVATIGRVAFHTYYPDSMKGRFTISRDNSKNTLYLQMNSLRAEDTAVYYCARHRGFDVGHFDFWGQGTLVTVSSASTKGPSVFPLAPSSKSTSGGTAALGCLVKDYFPEPVTVSWNSGALTSGVHTFPAVLQSSGLYSLSSVVTVPSSSLGTQTYICNVNHKPSNTKVDKKVEPKSCDKTHTCPPCPAPELLGGPSVFLFPPKPKDTLMISRTPEVTCVVVDVSHEDPEVKFNWYVDGVEVHNAKTKPREEQYNSTYRVVSVLTVLHQDWLNGKEYKCKVSNKALPAPIEKTISKAKGQPREPQVYVYPPSRDELTKNQVSLTCLVKGFYPSDIAVEWESNGQPENNYKTTPPVLDSDGSFALVSKLTVDKSRWQQGNVFSCSVMHEALHNHYTQKSLSLSPG heavy 2: not shown light: GDIQMTQSPSSLSASVGDRVTITCRSSETLVHSSGNTYLEWYQQKPGKAPKLLIYRVSNRFSGVPSRFSGSGSGTDFTLTISSLQPEDFATYYCFQGSFNPLTFGQGTKVEIKRTVAAPSVFIFPPSDEQLKSGTASVVCLLNNFYPREAKVQWKVDNALQSGNSQESVTEQDSKDSTYSLSSTLTLSKADYEKHKVYACEVTHQGLSSPVTKSFNRGEC | 39800 | 3 nM | –
3 | palivizumab (anti-RSV antibody, v21995) (antibody, human IgG1, kappa, V domains shown) VH: QVTLRESGPALVKPTQTLTLTCTFSGFSLSTSGMSVGWIRQPPGKALEWLADIWWDDKKDYNPSLKSRLTISKDTSKNQVVLKVTNMDPADTATYYCARSMITNWYFDVWGAGTTVTVSS VL: DIQMTQSPSTLSASVGDRVTITCKSQLSVGYMHWYQQKPGKAPKLLIYDTSKLASGVPSRFSGSGSGTEFTLTISSLQPDDFATYYCFQGSGYPFTFGGGTKLEIKR | – | – | Internalized Fluorescence Fold-Over Untreated, H441, 4 h, 2.5 nM [4]: 1 fold; Internalized Fluorescence Fold-Over Untreated, H441, 24 h, 2.5 nM [4]: 1.1 fold; Internalized Fluorescence Fold-Over Untreated, HCC-78, 4 h, 2.5 nM [4]: 1 fold; Internalized Fluorescence Fold-Over Untreated, HCC-78, 24 h, 2.5 nM [4]: 1.1 fold; Internalized Fluorescence Fold-Over Untreated, IGROV-1, 4 h, 2.5 nM [4]: 0.9 fold; Internalized Fluorescence Fold-Over Untreated, IGROV-1, 24 h, 2.5 nM [4]: 1 fold
4 | v29455 (H2L2) (antibody, human IgG1, kappa, V domains shown, Humanized IgG1/kappa) VH: QVQLVQSGAEVKKPGASVKVSCKASGFTFTSYNVHWVRQAPGQGLEWIAAISPGNGDLSYAQKFQGRVTMTVDTSTSTVYMELSSLRSEDTAVYYCARGRTGMGAVDYWGQGTLVTVSS VL: DVQMTQSPSSLSASVGDRVTITCRASQDVYSYLNWYQQKPGKAVKLLIYYTSRLQSGVPSRFSGSGSGTDYTLTISSLQPEDFATYYCQQYNIFPWTFGQGTKLEIKR | 41900 | 1.18 nM | –
5 | v29459 (H2L1) (antibody, human IgG1, kappa, V domains shown, Humanized IgG1/kappa) VH: QVQLVQSGAEVKKPGASVKVSCKASGFTFTSYNVHWVRQAPGQGLEWIAAISPGNGDLSYAQKFQGRVTMTVDTSTSTVYMELSSLRSEDTAVYYCARGRTGMGAVDYWGQGTLVTVSS VL: DIQMTQSPSSLSASVGDRVTITCRASQDVYSYLNWYQQKPGKAPKLLIYYTSRLQSGVPSRFSGSGSGTDFTLTISSLQPEDFATYYCQQYNIFPWTFGQGTKLEIKR | 40900 | 1.61 nM | –
6 | v29458 (H3L1) (antibody, human IgG1, kappa, V domains shown, Humanized IgG1/kappa) VH: QVQLVQSGAEVKKPGASVKMSCKASGFTFTSYNVHWVRQAPGQGLEWIAAISPGNGDLSYAQKFQGRATLTVDTSTSTAYMELSSLRSEDTAVYYCARGRTGMGAVDYWGQGTLVTVSS VL: DIQMTQSPSSLSASVGDRVTITCRASQDVYSYLNWYQQKPGKAPKLLIYYTSRLQSGVPSRFSGSGSGTDFTLTISSLQPEDFATYYCQQYNIFPWTFGQGTKLEIKR | 40800 | 1.39 nM | –
7 | v29453 (H4L2) (antibody, human IgG1, kappa, V domains shown, Humanized IgG1/kappa; clones CL_#21506 and CL_#21508) VH: QVQLVQSGAEVKKPGASVKMSCKASGFTFTSYNVHWVRQAPGQGLEWIAAISPGNGDLSYAQKFQGRATLTVDRSTSTAYMELSSLRSEDTAVYYCARGRTGMGAVDYWGQGTLVTVSS VL: DVQMTQSPSSLSASVGDRVTITCRASQDVYSYLNWYQQKPGKAVKLLIYYTSRLQSGVPSRFSGSGSGTDYTLTISSLQPEDFATYYCQQYNIFPWTFGQGTKLEIKR | 44500 | 0.82 nM | –
8 | v29457 (H4L1) (antibody, human IgG1, kappa, V domains shown, Humanized IgG1/kappa; clones CL_#21506 and CL_#21507) VH: QVQLVQSGAEVKKPGASVKMSCKASGFTFTSYNVHWVRQAPGQGLEWIAAISPGNGDLSYAQKFQGRATLTVDRSTSTAYMELSSLRSEDTAVYYCARGRTGMGAVDYWGQGTLVTVSS VL: DIQMTQSPSSLSASVGDRVTITCRASQDVYSYLNWYQQKPGKAPKLLIYYTSRLQSGVPSRFSGSGSGTDFTLTISSLQPEDFATYYCQQYNIFPWTFGQGTKLEIKR | 44500 | 1.73 nM | –
9 | v29454 (H3L2) (antibody, human IgG1, kappa, V domains shown, Humanized IgG1/kappa) VH: QVQLVQSGAEVKKPGASVKMSCKASGFTFTSYNVHWVRQAPGQGLEWIAAISPGNGDLSYAQKFQGRATLTVDTSTSTAYMELSSLRSEDTAVYYCARGRTGMGAVDYWGQGTLVTVSS VL: DVQMTQSPSSLSASVGDRVTITCRASQDVYSYLNWYQQKPGKAVKLLIYYTSRLQSGVPSRFSGSGSGTDYTLTISSLQPEDFATYYCQQYNIFPWTFGQGTKLEIKR | 42300 | 0.92 nM | –
10 | v29449 (H4L3) (antibody, human IgG1, kappa, V domains shown, Humanized IgG1/kappa) VH: QVQLVQSGAEVKKPGASVKMSCKASGFTFTSYNVHWVRQAPGQGLEWIAAISPGNGDLSYAQKFQGRATLTVDRSTSTAYMELSSLRSEDTAVYYCARGRTGMGAVDYWGQGTLVTVSS VL: DVQMTQSPSSLSASVGDRVTITCRASQDVYSYLNWYQQKPGKAVKLLIYYTSRLQSGVPSRFSGSGSGTDYTLTISSLQPEDIATYYCQQYNIFPWTFGQGTKLEIKR | 44500 | 0.79 nM | –
11 | v29450 (H3L3) (antibody, human IgG1, kappa, V domains shown, Humanized IgG1/kappa) VH: QVQLVQSGAEVKKPGASVKMSCKASGFTFTSYNVHWVRQAPGQGLEWIAAISPGNGDLSYAQKFQGRATLTVDTSTSTAYMELSSLRSEDTAVYYCARGRTGMGAVDYWGQGTLVTVSS VL: DVQMTQSPSSLSASVGDRVTITCRASQDVYSYLNWYQQKPGKAVKLLIYYTSRLQSGVPSRFSGSGSGTDYTLTISSLQPEDIATYYCQQYNIFPWTFGQGTKLEIKR | 43800 | 0.96 nM | –
12 | v29460 (H1L1) (antibody, human IgG1, kappa, V domains shown, Humanized IgG1/kappa) VH: QVQLVQSGAEVKKPGASVKVSCKASGFTFTSYNVHWVRQAPGQGLEWMGAISPGNGDLSYAQKFQGRVTMTRDTSTSTVYMELSSLRSEDTAVYYCARGRTGMGAVDYWGQGTLVTVSS VL: DIQMTQSPSSLSASVGDRVTITCRASQDVYSYLNWYQQKPGKAPKLLIYYTSRLQSGVPSRFSGSGSGTDFTLTISSLQPEDFATYYCQQYNIFPWTFGQGTKLEIKR | 40100 | 1.67 nM | –
13 | v29451 (H2L3) (antibody, human IgG1, kappa, V domains shown, Humanized IgG1/kappa) VH: QVQLVQSGAEVKKPGASVKVSCKASGFTFTSYNVHWVRQAPGQGLEWIAAISPGNGDLSYAQKFQGRVTMTVDTSTSTVYMELSSLRSEDTAVYYCARGRTGMGAVDYWGQGTLVTVSS VL: DVQMTQSPSSLSASVGDRVTITCRASQDVYSYLNWYQQKPGKAVKLLIYYTSRLQSGVPSRFSGSGSGTDYTLTISSLQPEDIATYYCQQYNIFPWTFGQGTKLEIKR | 46200 | 1.49 nM | –
